Tests used:
[1] = target: egSepF-CTD G163K (E. gallinarum); test: AUC
[2] = target: saSepF-CTD G145K (S. aureus); test: AUC

| Substance | stoichiometry N [1] | stoichiometry N [2] |
| --- | --- | --- |
| egSepF-CTD G163K (domain or fragment) | 2 | – |
| saSepF-CTD G145K (domain or fragment) | – | 2 |
